Results taken from paper PMC4004224 (Journal of the American Chemical Society, 2014).

Biological target: T1, recombinant human Rnase inhibitor (human, UniProt P13489 1-461)
T1 sequence (looked up): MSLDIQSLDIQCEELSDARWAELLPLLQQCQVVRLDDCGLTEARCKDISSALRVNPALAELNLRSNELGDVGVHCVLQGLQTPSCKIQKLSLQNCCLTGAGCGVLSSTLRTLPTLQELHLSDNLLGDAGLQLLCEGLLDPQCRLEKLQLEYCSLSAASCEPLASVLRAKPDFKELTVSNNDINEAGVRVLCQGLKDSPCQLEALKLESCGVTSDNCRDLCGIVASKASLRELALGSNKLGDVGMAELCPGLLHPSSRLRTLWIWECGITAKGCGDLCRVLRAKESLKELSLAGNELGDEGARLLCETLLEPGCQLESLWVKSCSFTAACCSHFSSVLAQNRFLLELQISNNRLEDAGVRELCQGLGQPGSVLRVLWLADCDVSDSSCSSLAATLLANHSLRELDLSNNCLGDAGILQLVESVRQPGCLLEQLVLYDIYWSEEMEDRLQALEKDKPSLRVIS

binding result: binds
B1: pyronin-conjugated bovine Rnase A (enzyme, UniProt P61823 27-150, looked up)
chain: KETAAAKFERQHMDSSTSAASSSNYCNQMMKSRNLTKDRCKPVNTFVHESLADVQAVCSQKNVACKNGQTNCYQSYSTMSITDCRETGSSKYPNCAYKTTQANKHIIVACEGNPYVPVHFDASV
modifications: lysines conjugated to the fluorinated pyronin from bromopyronin 5; 0.3-0.6 fluorophores per protein
